# Laboratory results published in patent publication US20250215411A1, “FUSION PROTEINS AND USES THEREOF” (priority 2022, published 2025).
# B1: RGD-SAP: RGD-4C (ACDCRGDCFCG) fused via GGSSRSS linker to N-terminus of saporin, C-terminal VDK and 6xHis tag; SEQ ID NO: 6 (protein)
# chain: ACDCRGDCFCGGGSSRSSVTSITLDLVNPTAGQYSSFVDKIRNNVKDPNLKYGGTDIAVIGPPSKEKFLRINFQSSRGTVSLGLKRDNLYVVAYLAMDNTNVNRAYYFKSEITSAELTALFPEATTANQKALEYTEDYQSIEKNAQITQGDKSRKELGLGIDLLLTFMEAVNKKARVVKNEARFLLIAIQMTAEVARFRYIQNLVTKNFPNKFDSDNKVIQFEVSWRKISTAIYGDAKNGVFNKDYDFGFGKVRQVKDLQMGLLMYLGKPKVDKHHHHHH
# Tests used:
# [1] = molecular target: αvβ5 integrin (Homo sapiens, UniProt P06756+P18084); conditions: cited from earlier work
# αvβ5 integrin, sequence (P06756 31-1048): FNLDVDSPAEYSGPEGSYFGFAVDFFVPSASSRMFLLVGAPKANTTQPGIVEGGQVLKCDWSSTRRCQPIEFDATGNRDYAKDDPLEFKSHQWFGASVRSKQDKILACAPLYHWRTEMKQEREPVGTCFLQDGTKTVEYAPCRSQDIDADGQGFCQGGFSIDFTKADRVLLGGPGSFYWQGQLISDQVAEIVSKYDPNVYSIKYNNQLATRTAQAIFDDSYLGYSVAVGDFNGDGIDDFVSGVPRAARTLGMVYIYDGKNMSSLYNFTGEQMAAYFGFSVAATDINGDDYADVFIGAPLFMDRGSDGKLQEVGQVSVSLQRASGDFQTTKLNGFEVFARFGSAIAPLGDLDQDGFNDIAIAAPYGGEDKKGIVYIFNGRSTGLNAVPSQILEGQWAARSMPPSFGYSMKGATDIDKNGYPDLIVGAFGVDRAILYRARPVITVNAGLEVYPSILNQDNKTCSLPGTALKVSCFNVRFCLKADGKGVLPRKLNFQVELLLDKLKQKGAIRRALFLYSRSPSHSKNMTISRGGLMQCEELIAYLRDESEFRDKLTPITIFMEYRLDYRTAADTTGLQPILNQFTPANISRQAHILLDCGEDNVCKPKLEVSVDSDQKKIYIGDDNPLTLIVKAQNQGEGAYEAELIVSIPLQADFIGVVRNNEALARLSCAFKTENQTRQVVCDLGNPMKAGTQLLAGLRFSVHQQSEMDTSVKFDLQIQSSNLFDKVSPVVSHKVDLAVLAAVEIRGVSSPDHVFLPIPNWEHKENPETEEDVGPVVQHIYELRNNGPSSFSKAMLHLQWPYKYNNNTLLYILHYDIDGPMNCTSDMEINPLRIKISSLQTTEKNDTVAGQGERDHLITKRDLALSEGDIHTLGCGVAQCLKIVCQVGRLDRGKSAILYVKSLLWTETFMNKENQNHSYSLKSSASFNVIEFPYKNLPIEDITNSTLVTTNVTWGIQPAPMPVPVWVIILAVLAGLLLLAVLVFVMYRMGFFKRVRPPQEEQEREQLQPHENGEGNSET
# αvβ5 integrin, sequence (P18084 24-799): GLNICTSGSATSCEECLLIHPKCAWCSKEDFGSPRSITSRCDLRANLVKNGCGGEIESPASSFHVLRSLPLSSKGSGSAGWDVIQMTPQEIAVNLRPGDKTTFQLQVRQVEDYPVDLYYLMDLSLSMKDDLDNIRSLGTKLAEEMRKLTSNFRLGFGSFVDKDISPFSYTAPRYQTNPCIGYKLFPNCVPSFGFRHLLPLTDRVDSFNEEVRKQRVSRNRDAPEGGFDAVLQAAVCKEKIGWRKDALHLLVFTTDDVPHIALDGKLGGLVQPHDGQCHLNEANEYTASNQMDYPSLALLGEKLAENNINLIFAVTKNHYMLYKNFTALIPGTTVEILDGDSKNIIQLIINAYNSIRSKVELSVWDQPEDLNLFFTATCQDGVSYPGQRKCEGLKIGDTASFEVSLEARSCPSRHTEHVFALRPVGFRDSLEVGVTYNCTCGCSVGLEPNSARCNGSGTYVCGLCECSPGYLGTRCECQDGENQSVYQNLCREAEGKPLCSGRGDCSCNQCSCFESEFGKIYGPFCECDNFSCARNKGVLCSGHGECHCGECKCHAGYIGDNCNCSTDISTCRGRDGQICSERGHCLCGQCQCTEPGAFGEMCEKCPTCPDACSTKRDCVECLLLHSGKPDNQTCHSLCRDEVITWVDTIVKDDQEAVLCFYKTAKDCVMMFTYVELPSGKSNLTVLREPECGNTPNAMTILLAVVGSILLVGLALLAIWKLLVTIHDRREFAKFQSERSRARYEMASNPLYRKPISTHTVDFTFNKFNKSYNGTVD
# [2] = molecular target: αvβ3 integrin (Homo sapiens, UniProt P05106+P06756); conditions: cited from earlier work
# αvβ3 integrin, sequence (P06756 31-1048): as the sequence (P06756 31-1048) above
# αvβ3 integrin, sequence (P05106 27-788): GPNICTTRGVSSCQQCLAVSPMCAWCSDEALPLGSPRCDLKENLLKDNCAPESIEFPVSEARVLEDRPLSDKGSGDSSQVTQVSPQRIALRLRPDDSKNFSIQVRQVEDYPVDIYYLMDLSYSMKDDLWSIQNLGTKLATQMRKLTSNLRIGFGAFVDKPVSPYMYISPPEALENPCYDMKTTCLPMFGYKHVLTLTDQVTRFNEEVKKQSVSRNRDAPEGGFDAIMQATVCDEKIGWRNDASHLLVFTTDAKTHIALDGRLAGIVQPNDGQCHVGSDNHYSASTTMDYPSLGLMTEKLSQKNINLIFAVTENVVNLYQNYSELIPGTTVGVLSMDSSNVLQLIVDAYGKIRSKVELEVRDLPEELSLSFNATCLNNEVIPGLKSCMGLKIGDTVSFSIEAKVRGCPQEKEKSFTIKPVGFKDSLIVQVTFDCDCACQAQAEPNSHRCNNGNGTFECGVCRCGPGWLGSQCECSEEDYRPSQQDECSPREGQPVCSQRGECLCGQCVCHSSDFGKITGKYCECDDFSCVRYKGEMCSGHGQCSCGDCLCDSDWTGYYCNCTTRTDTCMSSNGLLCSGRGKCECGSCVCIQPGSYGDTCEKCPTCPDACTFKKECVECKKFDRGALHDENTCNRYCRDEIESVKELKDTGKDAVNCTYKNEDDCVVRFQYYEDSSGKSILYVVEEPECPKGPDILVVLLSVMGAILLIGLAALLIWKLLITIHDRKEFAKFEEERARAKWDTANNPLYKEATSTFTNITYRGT
# [3] = molecular target: α5β1 integrin (Homo sapiens, UniProt P05556+P08648); conditions: cited from earlier work
# [4] = molecular target: αvβ6 integrin (Homo sapiens, UniProt P06756+P18564); conditions: cited from earlier work
# αvβ6 integrin, sequence (P06756 31-1048): as the sequence (P06756 31-1048) above
# αvβ6 integrin, sequence (P18564 22-788): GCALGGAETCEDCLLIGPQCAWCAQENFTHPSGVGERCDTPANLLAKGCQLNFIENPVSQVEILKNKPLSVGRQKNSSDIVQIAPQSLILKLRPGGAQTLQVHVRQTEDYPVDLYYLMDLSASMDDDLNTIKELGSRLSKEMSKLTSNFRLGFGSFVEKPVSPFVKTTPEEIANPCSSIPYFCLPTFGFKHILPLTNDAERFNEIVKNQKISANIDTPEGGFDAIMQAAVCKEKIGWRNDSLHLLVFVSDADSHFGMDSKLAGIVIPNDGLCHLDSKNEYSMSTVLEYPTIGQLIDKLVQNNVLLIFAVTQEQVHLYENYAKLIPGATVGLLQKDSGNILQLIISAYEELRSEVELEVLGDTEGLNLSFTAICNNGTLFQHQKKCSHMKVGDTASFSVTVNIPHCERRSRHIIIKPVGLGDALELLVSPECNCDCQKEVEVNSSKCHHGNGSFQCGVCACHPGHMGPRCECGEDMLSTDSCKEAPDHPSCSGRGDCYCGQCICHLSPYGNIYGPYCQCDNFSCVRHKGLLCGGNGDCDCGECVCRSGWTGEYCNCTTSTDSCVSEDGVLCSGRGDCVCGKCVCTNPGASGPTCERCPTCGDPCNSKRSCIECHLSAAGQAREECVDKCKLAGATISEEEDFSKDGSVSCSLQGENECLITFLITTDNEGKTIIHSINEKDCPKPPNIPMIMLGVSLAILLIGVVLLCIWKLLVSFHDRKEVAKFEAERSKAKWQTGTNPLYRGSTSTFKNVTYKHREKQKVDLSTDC
# [5] = test system: caspase 3 in 5637 and MDA-MB-468 cells; assay: Caspase 3 activation (western blot); format: cell-based, human; conditions: 30 nM, 48 and 72 h
# Protocol: Cells were washed twice with cold PBS, collected by scraping and centrifuged 5 min at 300 g. Cells were lysed for 30 min on ice in ice-cold buffer (50 mM Tris-HCl, pH 7.5, containing 150 mM NaCl, 2 mM NaF, 1 mM EDTA, 1 mM EGTA, 1 mM Na3VO4, 1 mM PMSF, 75 mU/ml aprotinin (Sigma-Aldrich), 1% TritonX-100 and a proteinase inhibitor Cocktail® (Sigma-Aldrich). Cell lysates were centrifuged at 10000×g at 4° C. for 10 min and the supernatants were recovered and quantified for total protein content. Equal amounts of cell protein extracts were separated by SDS-PAGE under reducing conditions unless stated otherwise. For western blot analysis, proteins were transferred onto a nitrocellulose membrane, incubated with 5% non-fat powdered milk in TBS-T (0.5% Tween-20) for 1 hour and then with the following antibodies: anti-saporin anti-serum (rabbit, 1:5000), anti-caspase 3 (rabbit, 1:2000, clone E87, Abcam), anti-beta actin (mouse, 1:10000, clone AC-15, Sigma-Aldrich). The antibody binding was detected using a secondary horseradish peroxidase conjugated antibodies (donkey anti-mouse/rabbit IgG HRP-linked, GE Healthcare) and an enhanced chemiluminescent (ECL, Merck Millipore).
# To induce caspase 3 activation, cells were treated with 30 nM RGD-SAP or 2 mM DTT for 48 and 72 hours.
# [6] = Toxicity in the subcutaneous model (body weight, injection site, serum biochemical parameters); format: in vivo, C57BL/6 mice
# Excerpt: (§1) Studies on animal models were approved by the Institutional Animal Care and Use Committee (Institutional Animal Care and Use Committee, IACUC) and performed according to the prescribed guidelines. C57BL/6 female mice (7 weeks old, Charles River, Calco, Italy) were challenged with subcutaneous injection in the left flank of 3-5×10^5 MB49 living cells; 5 days later, 4-6 mice/group were intravenously administered with various doses of RGD-SAP or CYS-SAP diluted in sodium chloride (0.9%, i.v., 200 μl). Tumor growth was estimated by calculating the volume using the formula r1×r2×r3×4/3 π, where r1 and r2 are the longitudinal and lateral radii, and r3 is the thickness of tumors protruding from the surface of normal skin. Animals were euthanized when tumors reached 10 mm in diameter, became ulcerated or a 15% animal body weight loss was measured.
# Blood samples were collected from the retroorbital plexus of anesthetized mice using 4% isoflurane at the end of each experiment or before animal sacrifice. Blood samples were left at room temperature for at least 30 min before being processed and then centrifuged (800×g, 10 min) for serum separation. Serum albumin, aspartate transaminase, alanine transaminase, creatinine and urea were determined by using an automated analyzer (ScilVet ABC plus and Idexx Procyte analyzers) according to the manufacturers' instructions. Standard controls were run before each determination.
# [7] = test system: normal fibroblasts; assay: Cell viability assay (MTT), normal fibroblasts; format: cell-based; conditions: 72 h
# Protocol: (§2) Cultured cell lines (5×10^3 cells/well) were seeded in 96 wells plates and incubated for 72 h with various amounts of RGD-SAP or CYS-SAP at 37° C., 5% CO2. Cell viability was then quantified by 3-(4,5-dimethylthiazol-2-yl)-2,5-diphenyltetrazolium bromide staining (MTT) (working solution 0.5 μg/ml). After 1 h of incubation, the supernatants were removed, the formazan crystals were dissolved with dimethyl sulfoxide and the absorbance at 570 nm was measured using a microtiter plate reader. Competitive experiments were performed as described above using 100 nM of RGD-SAP or 1000 nM of CYS-SAP in the presence of 5000 nM of ACDCRGDCFCG peptide for 48 and 72 hours.
# as §2, with “NGR-SAP, RGD-SAP, CgA-SAP, CYS-SAP, ATF-SAP” for “RGD-SAP”, “seed SAP” for “CYS-SAP”, “reader.” for “reader. Competitive experiments were performed as described above using 100 nM of RGD-SAP or 1000 nM of CYS-SAP in the presence of 5000 nM of ACDCRGDCFCG peptide for 48 and 72 hours.”
# [8] = test system: subcutaneous MB49 tumors; assay: Subcutaneous syngeneic bladder cancer mouse model; format: in vivo, C57BL/6 mice
# Excerpt: as §1
# [9] = test system: 5637 bladder cancer cells; assay: MTT competition experiment with free RGD-4C peptide; format: cell-based, human; conditions: 0.1 μM RGD-SAP or 1 μM CYS-SAP, 5 μM peptide, 48 and 72 h
# Protocol: as §2
# [10] = test system: 5637, RT112, RT4, U87, MDA-MB-468 cancer cell lines; assay: Cell viability assay (MTT), cancer cell lines; format: cell-based, human
# Protocol: as §2
# as §2, with “NGR-SAP, RGD-SAP, CgA-SAP, CYS-SAP, ATF-SAP” for “RGD-SAP”, “seed SAP” for “CYS-SAP”, “reader.” for “reader. Competitive experiments were performed as described above using 100 nM of RGD-SAP or 1000 nM of CYS-SAP in the presence of 5000 nM of ACDCRGDCFCG peptide for 48 and 72 hours.”
Molecule,affinity value [1] [nM],affinity value [2] [nM],affinity value [3] [nM],affinity value [4] [nM],caspase 3 activation [5],serum AST and CHE versus vehicle ([6]; 1 mg/kg),"body weight ([6]; 1 mg/kg i.v., day 19)","injection site reaction ([6]; 1 mg/kg i.v., tails)",systemic toxicity (liver and kidney serum parameters) ([6]; 0.25-1 mg/kg),"body weight ([6]; 0.75 and 0.5 mg/kg i.v., days 5, 10, 15)",cytotoxic effect compared to CYS-SAP [7],"effect on tumor growth ([8]; 0.25 mg/kg i.v., days 5, 10, 15)","effect on tumor growth ([8]; 0.5 mg/kg i.v., days 5, 10, 15)","effect on tumor growth ([8]; 0.75 mg/kg i.v., days 5, 10, 15)","survival, hazard ratio versus vehicle ([8]; 0.75 mg/kg, Mantel-Cox log-rank, 95% CI 1.19-23.10)","complete tumor eradication ([8]; 1 mg/kg i.v., end of experiment day 19, n=4)","effect on tumor growth ([8]; 1 mg/kg i.v., three times every five days from day 5)",effect of excess free RGD-4C peptide on cytotoxic activity [9],"cytotoxic effect compared to CYS-SAP ([10]; MTT, 72 h, all cancer cells)","sensitivity of U87 cells compared with the other cell lines ([10]; U87, highest amount of αvβ3)"
"RGD-4C: ACDCRGDCFCG peptide (SEQ ID NO: 2), an αv-integrin ligand",46,8.3,244,380,–,–,–,–,–,–,–,–,–,–,–,–,–,–,–,–
B1,–,–,–,–,caspase 3 activation was detectable as cleaved form,significantly higher values,loss of body weight,severe necrosis in the tails,dose dependent and apparent only with the highest dose used,without causing loss of body weight,but not with normal fibroblasts,but not 0.25 mg/kg,significant delay of tumor growth,significant delay of tumor growth,5.25,1 tumor undetectable and complete eradication in one mouse,marked reduction of the tumor volume in all mice,significantly decreased the activity,stronger cytotoxic effect,most sensitive
